T1: hENG(133-346)-hFc (human, UniProt P17813 133-346)
T1 construct: HEK 293, purified; not shown: linker and human IgG1 Fc domain
T1 sequence: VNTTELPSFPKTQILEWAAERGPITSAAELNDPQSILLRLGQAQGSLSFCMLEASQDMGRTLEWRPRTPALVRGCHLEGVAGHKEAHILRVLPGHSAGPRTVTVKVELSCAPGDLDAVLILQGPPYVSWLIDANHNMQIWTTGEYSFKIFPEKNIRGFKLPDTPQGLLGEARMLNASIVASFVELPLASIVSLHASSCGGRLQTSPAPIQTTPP

T2: hENG(26-437)-hFc (human, UniProt P17813 26-437)
T2 construct: HEK 293, purified; not shown: linker and human IgG1 Fc domain
T2 sequence: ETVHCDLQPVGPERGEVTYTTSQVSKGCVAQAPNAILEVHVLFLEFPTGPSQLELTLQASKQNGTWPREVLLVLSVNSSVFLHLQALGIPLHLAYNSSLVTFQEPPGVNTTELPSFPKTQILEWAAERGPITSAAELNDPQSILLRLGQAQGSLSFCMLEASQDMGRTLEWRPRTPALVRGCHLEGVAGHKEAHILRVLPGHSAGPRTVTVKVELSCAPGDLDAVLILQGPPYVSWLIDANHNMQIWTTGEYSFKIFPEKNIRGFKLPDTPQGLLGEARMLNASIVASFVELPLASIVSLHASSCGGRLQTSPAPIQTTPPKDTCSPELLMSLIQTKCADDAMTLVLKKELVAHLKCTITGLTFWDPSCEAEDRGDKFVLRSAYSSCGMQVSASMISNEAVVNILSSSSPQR


Tests used:
[1] = molecular target: T1, hENG(133-346)-hFc; experiment: SPR, captured hENG-hFc, soluble BMP9; '-' = Binding undetectable
Procedure: SPR methodology was used to screen these hENG-hFc protein variants for high-affinity binding to human BMP9 and BMP10. In these experiments, captured hENG-hFc proteins were exposed to soluble BMP9 or BMP10 at 100 nM each.

[2] = molecular target: T2, hENG(26-437)-hFc; experiment: SPR kinetics; HEK293-cell-derived protein

binding result [1]	Kd [2] [nM]	koff [2] [s⁻¹]	Binder
no binding (tested: 100 nM)			BMP9 (ligand, human, UniProt Q9UK05 320-429, looked up, also called hBMP-9; hBMP9) SAGAGSHCQKTSLRVNFEDIGWDSWIIAPKEYEAYECKGGCFFPLADDVTPTKHAIVQTLVHLKFPTKVGKACCVPTKLSPISVLYKDDMGVPTLKYHYEGMSVAECGCR
	0.13	0.0028	BMP10 (ligand, also called hBMP-10; hBMP10) NAKGNYCKRTPLYIDFKEIGWDSWIIAPPGYEAYECRGVCNYPLAEHLTPTKHAIIQALVHLKNSQKASKACCVPTKLEPISILYLDKGVVTYKFKYEGMAVSECGCR
